Experimental data: the supplement of paper PMC10126150
± gives the standard deviation of the averaged measurements.

Tested on: ATP
Experiment: switch fluorescence ratio, 500 uM ATP over buffer (Cy3 cluster intensity, sum of 5 cycles each) (fold (ratio)); higher = stronger signal-on switching upon ATP binding; sequences stand for … in TCGTCGGCAGCGTCAGATGTGTATAAGAGACAGTTTTTTTTTTTTTTTTTTTTTTTTT…TC
Details: aptamer strand: ATP DNA aptamer (quencher-CACCTGGGGGAGTATTGCGGAGGAAGG + anchor), 100 nM annealed; ATP concentration: 500 uM
Summary of the method: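 Between each of five buffer/ATP cycles, the flow-cell was stripped with NaOH and re-annealed. Each cycle imaged Cy3-labelled switching-strand clusters, annealed to 100 nM quencher-labelled ATP aptamer on a modified Illumina MiSeq flow-cell, first in selection buffer and then after 15 min with 500 uM ATP at 22 °C. The fluorescence ratio is summed target-cycle over summed buffer-cycle Cy3 intensity per cluster, averaged per switch-domain sequence, with clusters outside 100-1000 RFU excluded.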
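Further: ATP exposure 15 min at 22 °C before imaging.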

**Q.** TAGCGGTCTC was tested. Which switch fluorescence ratio did it give?
**A.** 1.03 ± 0.032

**Q.** Which switch fluorescence ratio does the source give for ATTCCTGTT here?
**A.** 1.004 ± 0.0019

**Q.** With TTAAGTGATT as the sequence, how does the switch fluorescence ratio read?
**A.** 0.999 ± 0.025

**Q.** Which switch fluorescence ratio does the source give for GTTGGGAGCG here?
**A.** 1 ± 0.033

**Q.** Which switch fluorescence ratio does the source give for GGTGCGTAGG here?
**A.** 1 ± 0.012

**Q.** How did the switch fluorescence ratio turn out when TGGAGTAATT was run?
**A.** 1.06 ± 0.063

**Q.** For CAGTAGCTGT, which switch fluorescence ratio is on record?
**A.** 1.204 ± 0.0022

**Q.** CGATATTGAT was tested. Which switch fluorescence ratio did it give?
**A.** 1.03 ± 0.035

**Q.** Which switch fluorescence ratio does the source give for GAAGCCGTTT here?
**A.** 1.01 ± 0.039

**Q.** How did the switch fluorescence ratio turn out when GTCGTTCGCA was run?
**A.** 1.15 ± 0.11

**Q.** Which switch fluorescence ratio does the source give for TGTTTCGGTT here?
**A.** 0.943 ± 0.044

**Q.** For TAGCTTGTGG, which switch fluorescence ratio is on record?
**A.** 0.9912 ± 0.0062

**Q.** For CATCCTTGGA, which switch fluorescence ratio is on record?
**A.** 0.996 ± 0.012

**Q.** With GGGGTAATCC as the sequence, how does the switch fluorescence ratio read?
**A.** 1.07 ± 0.14

**Q.** For CTCGGCTTGA, which switch fluorescence ratio is on record?
**A.** 1.06 ± 0.018

**Q.** For TGGCCTAGTG, which switch fluorescence ratio is on record?
**A.** 1.002 ± 0.0071

**Q.** With TTATGCGATT as the sequence, how does the switch fluorescence ratio read?
**A.** 1 ± 0.022

**Q.** Which switch fluorescence ratio does the source give for GTTTTTAGTT here?
**A.** 1.012 ± 0.0084

**Q.** Which switch fluorescence ratio does the source give for ACTGACCCCC here?
**A.** 1.58 ± 0.14

**Q.** CGACGCGGTA was tested. Which switch fluorescence ratio did it give?
**A.** 3.14 ± 0.059

**Q.** For ATGCTAATTA, which switch fluorescence ratio is on record?
**A.** 1.02 ± 0.024

**Q.** AGGATACTTT was tested. Which switch fluorescence ratio did it give?
**A.** 0.9793 ± 0.0038

**Q.** With AGTTATAATT as the sequence, how does the switch fluorescence ratio read?
**A.** 1.005 ± 0.0076

**Q.** With AAGCTGACAG as the sequence, how does the switch fluorescence ratio read?
**A.** 1.01 ± 0.013

**Q.** For GTCGTTGGTT, which switch fluorescence ratio is on record?
**A.** 0.985 ± 0.033

**Q.** Which switch fluorescence ratio does the source give for ACCGAGCAAG here?
**A.** 4.12 ± 0.19

**Q.** With TGGTTAACAG as the sequence, how does the switch fluorescence ratio read?
**A.** 0.999 ± 0.022

**Q.** For TTAGGATGTG, which switch fluorescence ratio is on record?
**A.** 0.984 ± 0.022

**Q.** For TTTCGATTTG, which switch fluorescence ratio is on record?
**A.** 1.02 ± 0.012

**Q.** How did the switch fluorescence ratio turn out when GGGCCGTAGG was run?
**A.** 0.99 ± 0.037

**Q.** CTGTAGGGGG was tested. Which switch fluorescence ratio did it give?
**A.** 1.07 ± 0.13

**Q.** CTGACCGGAG was tested. Which switch fluorescence ratio did it give?
**A.** 1.24 ± 0.036

**Q.** With GGAATCTAAC as the sequence, how does the switch fluorescence ratio read?
**A.** 1.03 ± 0.048

**Q.** How did the switch fluorescence ratio turn out when CGTTGCTTTT was run?
**A.** 1.01 ± 0.026

**Q.** For TCCAAACTGT, which switch fluorescence ratio is on record?
**A.** 1.01 ± 0.051

**Q.** Which switch fluorescence ratio does the source give for CTGAGGTAAT here?
**A.** 1.94 ± 0.21

**Q.** How did the switch fluorescence ratio turn out when TTCCATATGT was run?
**A.** 0.975 ± 0.021

**Q.** Which switch fluorescence ratio does the source give for TGAGGGGATA here?
**A.** 1.01 ± 0.025

**Q.** How did the switch fluorescence ratio turn out when CCAAGGAAAA was run?
**A.** 1.04 ± 0.17

**Q.** For TTTCTCGAAT, which switch fluorescence ratio is on record?
**A.** 1 ± 0.029

**Q.** Which switch fluorescence ratio does the source give for TTTCGTTTTC here?
**A.** 1.08 ± 0.1

**Q.** Which switch fluorescence ratio does the source give for TGTTTGCGAA here?
**A.** 1.01 ± 0.045

**Q.** With GGGGGAGTTC as the sequence, how does the switch fluorescence ratio read?
**A.** 1.02 ± 0.014

**Q.** How did the switch fluorescence ratio turn out when TTCCCCAGGG was run?
**A.** 3.63 ± 1.6

**Q.** With TCAATGAGGG as the sequence, how does the switch fluorescence ratio read?
**A.** 1.01 ± 0.03

**Q.** Which switch fluorescence ratio does the source give for AGATGTACTA here?
**A.** 1.04 ± 0.043

**Q.** How did the switch fluorescence ratio turn out when CCAAAAAAGG was run?
**A.** 0.9625 ± 0.005

**Q.** How did the switch fluorescence ratio turn out when TTTTCCTGAT was run?
**A.** 1 ± 0.017

**Q.** GAGAGGAGGT was tested. Which switch fluorescence ratio did it give?
**A.** 1.022 ± 0.0029

**Q.** Which switch fluorescence ratio does the source give for ATCAGTATAT here?
**A.** 0.992 ± 0.021

**Q.** With CTTTTGGAGT as the sequence, how does the switch fluorescence ratio read?
**A.** 0.986 ± 0.05

**Q.** Which switch fluorescence ratio does the source give for TCGGGAGAGC here?
**A.** 1.04 ± 0.038

**Q.** How did the switch fluorescence ratio turn out when GGGTGATGGG was run?
**A.** 0.977 ± 0.032

**Q.** Which switch fluorescence ratio does the source give for TGGGGGAAAA here?
**A.** 0.986 ± 0.01

**Q.** For GGAAAAACGT, which switch fluorescence ratio is on record?
**A.** 0.998 ± 0.015

**Q.** For AGTTAGGTAG, which switch fluorescence ratio is on record?
**A.** 0.9939 ± 0.0081

**Q.** Which switch fluorescence ratio does the source give for GGATTTTGTG here?
**A.** 0.994 ± 0.021

**Q.** CAAAAGTCGG was tested. Which switch fluorescence ratio did it give?
**A.** 1.02 ± 0.012

**Q.** For TCCCGGGACA, which switch fluorescence ratio is on record?
**A.** 1.79 ± 1.1

**Q.** With GTTTTACCTG as the sequence, how does the switch fluorescence ratio read?
**A.** 1 ± 0.03

**Q.** With CTGTGGTGGG as the sequence, how does the switch fluorescence ratio read?
**A.** 0.996 ± 0.051

**Q.** For TAAAAGGCAT, which switch fluorescence ratio is on record?
**A.** 1.03 ± 0.028

**Q.** With GCCCAATATC as the sequence, how does the switch fluorescence ratio read?
**A.** 2.68 ± 0.053

**Q.** How did the switch fluorescence ratio turn out when GTTTTAGGCG was run?
**A.** 0.986 ± 0.028

**Q.** How did the switch fluorescence ratio turn out when TTCGGTTACG was run?
**A.** 1.01 ± 0.011

**Q.** How did the switch fluorescence ratio turn out when AGTGTTAGTT was run?
**A.** 1 ± 0.024

**Q.** For TAATAGAAAA, which switch fluorescence ratio is on record?
**A.** 1.011 ± 0.006

**Q.** With GGATTTTTTG as the sequence, how does the switch fluorescence ratio read?
**A.** 0.983 ± 0.021

**Q.** How did the switch fluorescence ratio turn out when TGAGCCCACG was run?
**A.** 1.027 ± 0.0039

**Q.** Which switch fluorescence ratio does the source give for GGGTTAATCT here?
**A.** 0.9983 ± 0.0016

**Q.** How did the switch fluorescence ratio turn out when TTTCAAGATT was run?
**A.** 0.998 ± 0.015

**Q.** GGTTAATGGC was tested. Which switch fluorescence ratio did it give?
**A.** 1.05 ± 0.039

**Q.** With CATACTAACG as the sequence, how does the switch fluorescence ratio read?
**A.** 1.33 ± 0.062

**Q.** How did the switch fluorescence ratio turn out when GCGTCCGCGG was run?
**A.** 1.26 ± 0.041

**Q.** How did the switch fluorescence ratio turn out when GGAATAAGGG was run?
**A.** 0.995 ± 0.015

**Q.** TGTAATGTGA was tested. Which switch fluorescence ratio did it give?
**A.** 1.07 ± 0.14

**Q.** For TTGGCTTTGT, which switch fluorescence ratio is on record?
**A.** 0.985 ± 0.022
